Like-named read-outs stand apart in the source and are kept apart here.

In series [1] the target is pED208 TraM (plasmid pED208 (transfer-derepressed derivative of the Folac plasmid originally isolated from Salmonella typhi)) (UniProt P33788). In words: crystal structure.
The target in series [2] is T1, F TraM (F plasmid, UniProt P10026 1-127).
T1 sequence: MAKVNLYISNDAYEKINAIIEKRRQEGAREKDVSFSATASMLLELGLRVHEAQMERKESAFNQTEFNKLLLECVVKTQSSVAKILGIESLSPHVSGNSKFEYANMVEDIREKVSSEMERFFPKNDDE
The series can be described thus: SEC-MALLS.

The target of series [3] is T2, pED208 TraM N-terminal domain (plasmid pED208, UniProt P33788 2-52).
T2 sequence: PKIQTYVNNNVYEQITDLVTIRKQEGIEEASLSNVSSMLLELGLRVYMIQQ
In words: EMSA.

In series [4] the target is T3, pED208 TraM (plasmid pED208 (IncFV, derivative of …, UniProt P33788 1-127)).
T3 sequence: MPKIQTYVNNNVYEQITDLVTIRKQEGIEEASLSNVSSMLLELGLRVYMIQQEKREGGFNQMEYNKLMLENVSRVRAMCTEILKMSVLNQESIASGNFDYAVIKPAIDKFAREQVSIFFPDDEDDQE
The series can be described thus: EMSA.

The target in series [5] is T1, F TraM. The series can be described thus: SEC-MALLS. This is another data set of the same source.
The target of series [6] is T4, TraM[F1-55:pED208 56-127] chimera (F plasmid / plasmid pED208 chimera, UniProt P10026 1-55+P33788:56-127, internal_change).
T4 sequence: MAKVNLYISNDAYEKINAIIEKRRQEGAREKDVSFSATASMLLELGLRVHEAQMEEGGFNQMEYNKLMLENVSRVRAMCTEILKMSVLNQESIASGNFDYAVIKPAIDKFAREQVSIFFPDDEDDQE
In words: EMSA.

Take “pED208 TraM (from UniProt P33788 1-127) (natural protein)”: the stoichiometry N in series [1] was 4.

B1: F sbmAB 75 bp (dsDNA)
DNA 1: TTATATTAGGGGTGCTGCTAGCGGCGCGGTGTGTTTTTTTATAGGATACCGCTAGGGGCGCTGCTAGCGGTGCGT
DNA 2: ACGCACCGCTAGCAGCGCCCCTAGCGGTATCCTATAAAAAAACACACCGCGCCGCTAGCAGCACCCCTAATATAA
As to B1, in series [2], the binding result was “binds”.

B2: pED208 sbmA 24 bp (pED 4site, palindromic) (dsDNA)
DNA 1: AGATTCGAATCTAGATTCGAATCT
DNA 2: AGATTCGAATCTAGATTCGAATCT
Take B2: in series [3], the binding signal is ~500 fold lower affinity than full-length. The molecule further registered a Kd in series [4] of 4.8 ± 0.7 nM.

B3: F sbmA 30 bp (dsDNA)
DNA 1: GATACCGCTAGGGGCGCTGCTAGCGGTGCG
DNA 2: CGCACCGCTAGCAGCGCCCCTAGCGGTATC
Consider B3, for which the binding result in series [5] and in series [6] was “binds” each time.

These data come from paper PMC3159463.
